Laboratory results published in patent publication US20210032312A1 (Janssen / Centocor, published 2021).
Changes are numbered by the printed parent chain.

B1: P282ER9P1360_G10 (designed binder)
chain: LPAPKNLVVSRVTEDSARLSWTAPDAAFDSFAIWYVEQHPFGEAIPLFVPGSERSYDLTGLKPGTEYTVGIRGVKGGNFSTPLIAHFTT
notes: FN3 domain
B2: P282FR9P1361_H5 (designed binder)
chain: LPAPKNLVVSRVTEDSARLSWTAPDAAFDSFDIWYAEYGYPGEAIVLTVPGSERSYDLTGLKPGTEYDVAISGVKGGPRSYPLSAIFTT
notes: FN3 domain
B3: P282FR9P1361_F11 (designed binder)
chain: B2 chain with D32G, A36R, Y40G, P41S, S72W, P78V
notes: FN3 domain
B4: P282FR9P1361_H4 (designed binder)
chain: B2 chain with D32G, P41S, S72Y, P78S, R79P
notes: FN3 domain
B5: P282FR9P1361_F3 (designed binder)
chain: B2 chain with V74A
notes: FN3 domain
B6: P282FR9P1361_C7 (designed binder)
chain: B2 chain with D32G, A36H, Y40G, P41D, S72W, P78D, R79V
notes: FN3 domain
B7: P282FR9P1361_D3 (designed binder)
chain: B2 chain with K62N
notes: FN3 domain
B8: P282FR9P1361_A3 (designed binder)
chain: B2 chain with S72V, P78N
notes: FN3 domain
B9: P282FR9P1361_F1 (designed binder)
chain: B2 chain with D32G, P41S, S72W, P78V
notes: FN3 domain
B10: P282FR9P1361_F2 (designed binder)
chain: B2 chain with V74I
notes: FN3 domain
B11: P282ER9P1360_F11 (designed binder)
chain: LPAPKNLVVSRVTEDSARLSWIAPDAAFDSFSIAYVEAELVGEAIQLVVPGSERSYDLTGLKPGTEYWVVILGVKGGNPSNPLGASFTT
notes: FN3 domain
B12: P282ER9P1360_H3 (designed binder)
chain: B11 chain with I22T
notes: FN3 domain
B13: P282ER9P1360_H10 (designed binder)
chain: LPAPKNLVVSRVTEDSARLSWTAPDAAFDSFEIYYPEWPFAGEAIGLPVPGSERSYDLTGLKPGTEYFVVIYGVKGGELSEPLTAQFTT
notes: FN3 domain
B14: P282ER9P1360_A9 (designed binder)
chain: LPAPKNLVVSRVTEDSARLSWTAPDAAFDSFGILYYEPVDSGEAITLPIPGSERSYDLTGLKPGTEYWVVITGVKGGAPSTPLGAIFTT
notes: FN3 domain
B15: P282ER9P1360_C8 (designed binder)
chain: B14 chain with I49V, A85T
notes: FN3 domain
B16: P282ER9P1360_G7 (designed binder)
chain: B14 chain with I49V, F87L
notes: FN3 domain
B17: P282ER9P1360_C4 (designed binder)
chain: B14 chain with L34T, V39N, D40H, S41G, T46S, P48S, I49V, L58P
notes: FN3 domain
B18: P282ER9P1360_E4 (designed binder)
chain: B14 chain with I49V, P50L
notes: FN3 domain
B19: P282ER9P1360_C6 (designed binder)
chain: B14 chain with P2S
notes: FN3 domain
B20: P282ER9P1360_D11 (designed binder)
chain: B14 chain with I49V, W68F, V70I, T72V, A78Y, T81I, I86A
notes: FN3 domain
B21: P282ER9P1360_C1 (designed binder)
chain: B14 chain with A23T, I49V
notes: FN3 domain
B22: P282ER9P1360_H2 (designed binder)
chain: LPAPKNLVVSRVTEDSARLSWTAPDAAFDSFSIAYVEAELVGEAIQLVVPGSERSYDLTGLKPGTEYWVVILGVKGGNPSNPLGASFTTT
notes: FN3 domain

Target: T1, In house human CD8A-Fc (human, UniProt P01732 22-182, limits assumed)
T1 construct: Captured on goat anti-human Fc on a ProteOn GLC chip; also called hCD8A-Fc; recombinant human CD8 alpha; not shown: linker with flag (and polyhistidine) tag and Fc of human IgG1
Assay: SPR (ProteOn), captured hCD8A-Fc

T1 sequence (P01732 22-182 limits assumed): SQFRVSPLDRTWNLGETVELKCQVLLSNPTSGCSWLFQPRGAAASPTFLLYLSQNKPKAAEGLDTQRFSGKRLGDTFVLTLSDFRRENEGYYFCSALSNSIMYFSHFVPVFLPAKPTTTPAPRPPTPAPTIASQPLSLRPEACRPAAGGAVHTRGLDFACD

Row | Binder | koff
1 | B1 | 0.00207 s⁻¹
2 | B2 | 0.00577 s⁻¹
3 | B3 | 0.00213 s⁻¹
4 | B4 | 0.000317 s⁻¹
5 | B5 | 0.0107 s⁻¹
6 | B6 | 0.00224 s⁻¹
7 | B7 | 0.00502 s⁻¹
8 | B8 | 0.000757 s⁻¹
9 | B9 | 0.00126 s⁻¹
10 | B10 | 0.00496 s⁻¹
11 | B11 | 0.000225 s⁻¹
12 | B12 | 0.000242 s⁻¹
13 | B13 | 0.00104 s⁻¹
14 | B14 | 0.000133 s⁻¹
15 | B15 | 0.000156 s⁻¹
16 | B16 | 0.000221 s⁻¹
17 | B17 | 0.00107 s⁻¹
18 | B18 | 0.000191 s⁻¹
19 | B19 | 0.000175 s⁻¹
20 | B20 | 0.000142 s⁻¹
21 | B21 | 0.000181 s⁻¹
22 | B22 | 0.000269 s⁻¹

Target: T2, cynomolgus monkey CD8A on primary cynomolgus monkey CD8+ T cells (cynomolgus monkey, UniProt P01732 23-235 (human entry))
T2 construct: also called Cyno CD8alpha
Assay: flow cytometry, cyno CD8+ T cells, 2 uM FN3

T2 sequence (P01732 other isoform, or with tags, fused parts or gaps limits assumed): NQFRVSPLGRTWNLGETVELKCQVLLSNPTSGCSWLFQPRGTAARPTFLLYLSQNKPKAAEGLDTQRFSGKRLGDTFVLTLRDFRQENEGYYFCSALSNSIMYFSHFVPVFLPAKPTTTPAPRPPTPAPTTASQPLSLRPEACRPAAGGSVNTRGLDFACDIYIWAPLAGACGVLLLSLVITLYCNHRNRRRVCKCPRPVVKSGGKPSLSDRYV

Row | Binder | Cyno T-cell Binding 2 uM (MFI)
23 | B1 | 62700 MFI
24 | B2 | 11800 MFI
25 | B3 | 2290 MFI
26 | B4 | 26300 MFI
27 | B5 | 9710 MFI
28 | B6 | 11600 MFI
29 | B7 | 14800 MFI
30 | B8 | 8480 MFI
31 | B9 | 9870 MFI
32 | B10 | 10900 MFI
33 | B11 | 48700 MFI
34 | B12 | 66000 MFI
35 | B13 | 27100 MFI
36 | B14 | 64700 MFI
37 | B15 | 66800 MFI
38 | B16 | 69700 MFI
39 | B17 | 33400 MFI
40 | B18 | 60800 MFI
41 | B19 | 52800 MFI
42 | B20 | 76600 MFI
43 | B21 | 64800 MFI
44 | B22 | 44600 MFI

Target: T3, human CD8 alpha (CD8A) on primary human CD8+ T cells (human, UniProt P01732 22-235)
T3 construct: whole, on cells; also called hCD8A
Assay: flow cytometry, human CD8+ T cells, 2 uM FN3

T3 sequence (P01732 22-235): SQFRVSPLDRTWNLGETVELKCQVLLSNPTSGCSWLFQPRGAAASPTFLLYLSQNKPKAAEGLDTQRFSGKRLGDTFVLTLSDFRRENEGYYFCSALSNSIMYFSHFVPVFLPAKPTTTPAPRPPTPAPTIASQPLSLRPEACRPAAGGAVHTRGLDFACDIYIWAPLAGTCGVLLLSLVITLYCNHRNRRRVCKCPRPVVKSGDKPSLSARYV

Row | Binder | Human T-cell Binding 2 uM (MFI)
45 | B1 | 27000 MFI
46 | B2 | 5730 MFI
47 | B3 | 2190 MFI
48 | B4 | 13100 MFI
49 | B5 | 5160 MFI
50 | B6 | 8540 MFI
51 | B7 | 6880 MFI
52 | B8 | 7670 MFI
53 | B9 | 5500 MFI
54 | B10 | 4610 MFI
55 | B11 | 22400 MFI
56 | B12 | 20000 MFI
57 | B13 | 2510 MFI
58 | B14 | 23400 MFI
59 | B15 | 30600 MFI
60 | B16 | 25400 MFI
61 | B17 | 19200 MFI
62 | B18 | 26900 MFI
63 | B19 | 25900 MFI
64 | B20 | 36800 MFI
65 | B21 | 25900 MFI
66 | B22 | 15200 MFI

Target: T2, cynomolgus monkey CD8A on primary …
Assay: flow cytometry, cyno CD8+ T cells, 0.2 uM FN3

Row | Binder | Cyno T-cell Binding 0.2 uM (MFI)
67 | B1 | 22600 MFI
68 | B2 | 637 MFI
69 | B3 | 384 MFI
70 | B4 | 2500 MFI
71 | B5 | 513 MFI
72 | B6 | 896 MFI
73 | B7 | 764 MFI
74 | B8 | 740 MFI
75 | B9 | 1390 MFI
76 | B10 | 462 MFI
77 | B11 | 4410 MFI
78 | B12 | 6440 MFI
79 | B13 | 1890 MFI
80 | B14 | 8730 MFI
81 | B15 | 10200 MFI
82 | B16 | 9920 MFI
83 | B17 | 3900 MFI
84 | B18 | 6870 MFI
85 | B19 | 7580 MFI
86 | B20 | 1940 MFI
87 | B21 | 9680 MFI
88 | B22 | 4540 MFI

Target: T3, human CD8 alpha (CD8A) on primary human …
Assay: flow cytometry, human CD8+ T cells, 0.2 uM FN3

Row | Binder | Human T-cell Binding 0.2 uM (MFI)
89 | B1 | 7050 MFI
90 | B2 | 698 MFI
91 | B3 | 382 MFI
92 | B4 | 3740 MFI
93 | B5 | 674 MFI
94 | B6 | 1580 MFI
95 | B7 | 1030 MFI
96 | B8 | 1660 MFI
97 | B9 | 801 MFI
98 | B10 | 498 MFI
99 | B11 | 3860 MFI
100 | B12 | 4270 MFI
101 | B13 | 506 MFI
102 | B14 | 5340 MFI
103 | B15 | 6010 MFI
104 | B16 | 5870 MFI
105 | B17 | 3460 MFI
106 | B18 | 5030 MFI
107 | B19 | 5080 MFI
108 | B20 | 3210 MFI
109 | B21 | 6290 MFI
110 | B22 | 3480 MFI
